Laboratory results taken from US20210403591A1 (OSSIANIX, published 2021).
Changes are numbered by the printed parent chain. Like-named read-outs stand apart in the source and are kept apart here.

B1: Clone H VNAR-hFc fusion (Fc fusion, not shown: a dimerising Fc or GST)
chain: ARVDQTPQTITKETGESLTINCVLRDSNCELSSTYWYRKKSGSTNEESISKGGRYVETVNSGSKSFSLRINDLVVEDSGTYRCNVQQFPSSSNGRYWCDVYGGGTAVTVNA
notes: bivalent VNAR-Fc
B2: Clone H variant 5 VNAR-hFc (Fc fusion, not shown: a dimerising Fc or GST)
chain: B1 chain with S90N, S91R, S92W
B3: Clone H variant 2 VNAR-hFc (Fc fusion, not shown: a dimerising Fc or GST)
chain: B1 chain with S92W, N93P, G94F
B4: Clone H variant 3 VNAR-hFc (Fc fusion, not shown: a dimerising Fc or GST)
chain: B1 chain with S91W, S92G
B5: Clone H variant 7 VNAR-hFc (Fc fusion, not shown: a dimerising Fc or GST)
chain: B1 chain with S90T, S91R, S92T
B6: Clone H variant 6 VNAR-hFc (Fc fusion, not shown: a dimerising Fc or GST)
chain: B1 chain with S91R, S92N
B7: Clone H variant 8 VNAR-hFc (Fc fusion, not shown: a dimerising Fc or GST)
chain: B1 chain with S91R, S92H
B8: Clone H variant 4 VNAR-hFc (Fc fusion, not shown: a dimerising Fc or GST)
chain: B1 chain with S91R, S92F
B9: Clone C variant 1 VNAR-hFc (Fc fusion, not shown: a dimerising Fc or GST)
chain: ARVDQTPQTITKETGESLTINCVLRDSNCALSSTYWYRKKSGSTNEENISKGGRYVETVNSGSKSFSLRINDLTVEDSGTYRCNVAQRPSYNNYFWCDVYGDGTAVTVN
B10: Clone C variant 8 VNAR-hFc (Fc fusion, not shown: a dimerising Fc or GST)
chain: B9 chain with A86V, R88W
B11: Clone C variant 3 VNAR-hFc (Fc fusion, not shown: a dimerising Fc or GST)
chain: B9 chain with A86V, R88H
B12: Clone C variant 12 VNAR-hFc (Fc fusion, not shown: a dimerising Fc or GST)
chain: B9 chain with A86V, R88Y, S90Q, Y91Q, N92D, Y94P
B13: Clone C variant 11 VNAR-hFc (Fc fusion, not shown: a dimerising Fc or GST)
chain: B9 chain with A86V, R88Y, S90H
B14: Clone C variant 10 VNAR-hFc (Fc fusion, not shown: a dimerising Fc or GST)
chain: B9 chain with A86V, R88Y, S90F, Y91L, N92E
B15: Clone C variant 7 VNAR-hFc (Fc fusion, not shown: a dimerising Fc or GST)
chain: B9 chain with A86V, R88W, Y91L, N92S, N93S, Y94P
B16: Clone C variant 14 VNAR-hFc (Fc fusion, not shown: a dimerising Fc or GST)
chain: B9 chain with A86V, R88Y, S90Q, Y91Q, N92D, N93R, Y94P
B17: Clone C variant 20 VNAR-hFc (Fc fusion, not shown: a dimerising Fc or GST)
chain: B9 chain with A86V, R88Y, Y91H
B18: Clone C variant 24 VNAR-hFc (Fc fusion, not shown: a dimerising Fc or GST)
chain: B9 chain with A86V, R88Y, Y91W, N92D
B19: Clone C variant 9 VNAR-hFc (Fc fusion, not shown: a dimerising Fc or GST)
chain: B9 chain with A86V, R88W, S90T, Y91L, N92S, N93S, Y94P
B20: Clone C variant 22 VNAR-hFc (Fc fusion, not shown: a dimerising Fc or GST)
chain: B9 chain with A86V, R88Y, Y91N
B21: Clone C variant 2 VNAR-hFc (Fc fusion, not shown: a dimerising Fc or GST)
chain: B9 chain with A86L
B22: Clone C variant 6 VNAR-hFc (Fc fusion, not shown: a dimerising Fc or GST)
chain: B9 chain with A86V, R88W, Y91I, N92Q, N93S, Y94P
B23: Clone C variant 23 VNAR-hFc (Fc fusion, not shown: a dimerising Fc or GST)
chain: B9 chain with A86V, R88Y, Y91Q, N92Q
B24: Clone C variant 5 VNAR-hFc (Fc fusion, not shown: a dimerising Fc or GST)
chain: B9 chain with A86V, R88S
B25: Clone C variant 25 VNAR-hFc (Fc fusion, not shown: a dimerising Fc or GST)
chain: B9 chain with A86V, R88Y, N92D, Y94P
B26: Clone C variant 15 VNAR-hFc (Fc fusion, not shown: a dimerising Fc or GST)
chain: B9 chain with A86V, R88Y, S90Q, Y91Q, N92P
B27: Clone C variant 21 VNAR-hFc (Fc fusion, not shown: a dimerising Fc or GST)
chain: B9 chain with A86V, R88Y, Y91I, N92F
B28: Clone C variant 17 VNAR-hFc (Fc fusion, not shown: a dimerising Fc or GST)
chain: B9 chain with A86V, R88Y, S90Q, N92D
B29: Clone C variant 19 VNAR-hFc (Fc fusion, not shown: a dimerising Fc or GST)
chain: B9 chain with A86V, R88Y, S90R, Y91T
B30: Clone C variant 4 VNAR-hFc (Fc fusion, not shown: a dimerising Fc or GST)
chain: B9 chain with A86V

Tests used:
[1] = target: T1, recombinant human TfR-1, His-tagged (Sino Biological 11020-H07H) (human, UniProt P02786 89-760); assay: SPR, His-captured TfR1
T1 construct: bought; His-tagged; also called hTfR1; hTfR-1
T1 sequence (P02786 89-760 limits assumed): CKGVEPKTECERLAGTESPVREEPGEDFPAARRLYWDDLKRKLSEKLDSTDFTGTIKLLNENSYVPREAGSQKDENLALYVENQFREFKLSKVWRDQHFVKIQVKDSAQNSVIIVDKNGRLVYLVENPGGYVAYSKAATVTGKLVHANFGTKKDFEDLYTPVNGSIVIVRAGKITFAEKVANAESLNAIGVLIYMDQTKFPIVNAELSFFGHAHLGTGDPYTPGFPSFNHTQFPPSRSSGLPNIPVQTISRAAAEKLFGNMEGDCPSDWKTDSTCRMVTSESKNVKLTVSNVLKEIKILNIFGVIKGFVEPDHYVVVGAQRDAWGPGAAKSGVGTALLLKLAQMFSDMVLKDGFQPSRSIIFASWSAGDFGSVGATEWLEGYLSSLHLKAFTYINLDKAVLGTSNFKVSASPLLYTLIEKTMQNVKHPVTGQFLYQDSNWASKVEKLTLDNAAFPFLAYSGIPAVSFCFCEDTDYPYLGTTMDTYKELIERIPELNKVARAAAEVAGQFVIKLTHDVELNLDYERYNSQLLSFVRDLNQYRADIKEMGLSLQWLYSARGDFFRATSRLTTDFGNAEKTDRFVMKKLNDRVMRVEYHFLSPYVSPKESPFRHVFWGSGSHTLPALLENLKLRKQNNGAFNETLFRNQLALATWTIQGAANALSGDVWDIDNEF
Method: (§1) Detailed binding kinetic analyses were performed to gain a better understanding of the relationship between affinity and brain penetration of the Clone H variants. Biacore surface plasmon resonance (SPR) analysis using immobilized mouse and human TfR-1 was performed for the clones (Table 5).
(§2) Binding kinetics of VNAR-Fcs was determined by surface plasmon resonance (Biacore T200, GE Healthcare). CMS chips were coated with anti-His antibodies (His Capture Kit, GE Healthcare) as recommended by the manufacturer and human or mouse his-tagged TfR1 (SinoBiological) at 10 ug/mL in HBS-EP+ (GE Healthcare) was captured at flow rate 10 ul/min (contact time 120 s). […] A flow cell without TfR1 captured served as a reference. Sensorgrams were fitted and kinetic constants were determined using Biacore T200 Evaluation software. Chips were regenerated in 10 mM Glycine-HCl, pH 1.5 (contact time: 120 s at flow rate 30 ul/min).

[2] = target: T2, recombinant mouse TfR-1, His-tagged (Sino Biological 50741-M07H) (mouse, UniProt Q62351 89-763); assay: SPR, His-captured TfR1
T2 construct: bought; His-tagged; also called mTfR1; mTfR-1
T2 sequence (Q62351 89-763 limits assumed, stated change not applied): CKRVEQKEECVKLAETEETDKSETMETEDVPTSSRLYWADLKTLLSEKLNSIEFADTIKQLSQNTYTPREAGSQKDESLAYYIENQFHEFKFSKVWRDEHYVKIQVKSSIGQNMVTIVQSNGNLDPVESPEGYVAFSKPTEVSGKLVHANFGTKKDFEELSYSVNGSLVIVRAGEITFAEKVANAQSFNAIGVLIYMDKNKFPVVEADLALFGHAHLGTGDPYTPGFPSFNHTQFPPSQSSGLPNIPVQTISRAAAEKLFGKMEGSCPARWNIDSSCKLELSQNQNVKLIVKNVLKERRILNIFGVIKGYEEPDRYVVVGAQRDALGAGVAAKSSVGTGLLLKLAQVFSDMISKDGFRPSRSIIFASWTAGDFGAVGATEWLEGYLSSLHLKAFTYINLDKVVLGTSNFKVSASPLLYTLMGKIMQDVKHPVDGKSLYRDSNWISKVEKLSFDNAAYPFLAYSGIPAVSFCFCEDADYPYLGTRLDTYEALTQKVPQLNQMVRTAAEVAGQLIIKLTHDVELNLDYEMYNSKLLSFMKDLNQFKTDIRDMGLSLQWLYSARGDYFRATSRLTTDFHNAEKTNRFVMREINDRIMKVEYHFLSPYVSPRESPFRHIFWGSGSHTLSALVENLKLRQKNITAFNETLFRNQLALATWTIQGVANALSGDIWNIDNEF
Method: as §1, §2

[3] = target: T3, purified mTfR1 mutant M3 (NGA) (mouse, UniProt Q62351 89-763); assay: ELISA, coated purified mTfR-1
T3 construct: also called S255A
T3 sequence (Q62351 other isoform, or with tags, fused parts or gaps mutant): as the sequence (Q62351 89-763 limits assumed, stated change not applied) above, with S167A counted along it

[4] = target: T4, purified mTfR1 mutant M2 (NAS) (mouse, UniProt Q62351 89-763); assay: ELISA, coated purified mTfR-1
T4 construct: also called G254A
T4 sequence (Q62351 other isoform, or with tags, fused parts or gaps mutant): as the sequence (Q62351 89-763 limits assumed, stated change not applied) above, with G166A counted along it

[5] = target: T5, purified mTfR1 mutant M1 (AGS) (mouse, UniProt Q62351 89-763); assay: ELISA, coated purified mTfR-1
T5 construct: also called N253A
T5 sequence (Q62351 other isoform, or with tags, fused parts or gaps mutant): as the sequence (Q62351 89-763 limits assumed, stated change not applied) above, with N165A counted along it

[6] = target: purified WT mTfR-1 (ELISA coat) (mouse, UniProt Q62351 89-763); assay: ELISA, coated purified mTfR-1
Sequence of purified WT mTfR-1 (ELISA coat) (Q62351 89-763): as the sequence (Q62351 89-763 limits assumed, stated change not applied) above

[7] = target: T4, purified mTfR1 mutant M2 (NAS); assay: ELISA, coated purified mTfR-1 mutant M2 (NAS) against WT
[8] = target: T1, recombinant human TfR-1, His-tagged …; assay: SPR, His-captured TfR1; remark: listed apart in the source
Method: (§3) Detailed binding kinetic analyses were performed to gain a better understanding of the relationship between affinity and brain penetration of the Clone C variants. Biacore surface plasmon resonance (SPR) analysis using immobilised mouse and human TfR-1 was performed for selected clones (Table 2).
as §2

[9] = target: T2, recombinant mouse TfR-1, His-tagged …; assay: SPR, His-captured TfR1; remark: listed apart in the source
Method: as §3, §2

Binder | Kd [8] [nM] | koff [8] [s⁻¹] | kon [8] [M⁻¹ s⁻¹] | Kd [9] [nM] | koff [9] [s⁻¹] | kon [9] [M⁻¹ s⁻¹] | other results
B1 |  |  |  |  |  |  | Kd [1]: 6.11 nM; koff [1]: 0.00183 s⁻¹; kon [1]: 301000 M⁻¹ s⁻¹; Kd [2]: 2.54 nM; koff [2]: 9.11e-05 s⁻¹; kon [2]: 35800 M⁻¹ s⁻¹; EC50 [3]: 6.6 nM; EC50 [4]: 170 nM; EC50 [5]: 5.7 nM; EC50 [6]: 1.6 nM; fold reduction of binding relative to WT mTfR-1 [7]: ~10 fold
B2 |  |  |  |  |  |  | Kd [2]: 11 nM; koff [2]: 0.000369 s⁻¹; kon [2]: 33700 M⁻¹ s⁻¹
B3 |  |  |  |  |  |  | Kd [1]: 3.77 nM; koff [1]: 0.000403 s⁻¹; kon [1]: 107000 M⁻¹ s⁻¹; Kd [2]: 25.2 nM; koff [2]: 0.000482 s⁻¹; kon [2]: 19100 M⁻¹ s⁻¹
B4 |  |  |  |  |  |  | Kd [1]: 4.71 nM; koff [1]: 0.000254 s⁻¹; kon [1]: 53900 M⁻¹ s⁻¹; Kd [2]: 5.59 nM; koff [2]: 0.000273 s⁻¹; kon [2]: 48900 M⁻¹ s⁻¹
B5 |  |  |  |  |  |  | Kd [2]: 15.6 nM; koff [2]: 0.000399 s⁻¹; kon [2]: 25600 M⁻¹ s⁻¹
B6 |  |  |  |  |  |  | Kd [2]: 16.5 nM; koff [2]: 0.000417 s⁻¹; kon [2]: 25300 M⁻¹ s⁻¹
B7 |  |  |  |  |  |  | Kd [1]: 25 nM; koff [1]: 0.000948 s⁻¹; kon [1]: 38000 M⁻¹ s⁻¹; Kd [2]: 8.4 nM; koff [2]: 0.000618 s⁻¹; kon [2]: 73600 M⁻¹ s⁻¹
B8 |  |  |  |  |  |  | Kd [1]: 15.9 nM; koff [1]: 0.00183 s⁻¹; kon [1]: 115000 M⁻¹ s⁻¹; Kd [2]: 12.4 nM; koff [2]: 0.000352 s⁻¹; kon [2]: 28300 M⁻¹ s⁻¹
B9 | 2.79 | 0.000322 | 115000 | 1.45 | 0.000154 | 106000 | 
B10 | 4.5 | 0.000519 | 115000 | 6.81 | 0.000432 | 63500 | 
B11 | 0.311 | 0.000119 | 381000 | 0.72 | 0.000256 | 355000 | 
B12 | 0.699 | 0.000142 | 203000 | 0.715 | 0.000128 | 179000 | 
B13 | 0.472 | 9.01e-05 | 191000 | 0.291 | 5.17e-05 | 177000 | 
B14 | 2.79 | 0.000389 | 140000 |  |  |  | 
B15 | 0.636 | 7.02e-05 | 110000 | 0.286 | 3.39e-05 | 119000 | 
B16 | 6.34 | 0.000156 | 24500 | 6.69 | 0.000133 | 19900 | 
B17 | 5.61 | 0.000291 | 51900 | 2.06 | 0.000103 | 50100 | 
B18 | 2.19 | 0.000194 | 88800 |  |  |  | 
B19 | 26.5 | 0.000754 | 28500 | 2.43 | 9.32e-05 | 38300 | 
B20 | 8.44 | 0.000627 | 74200 |  |  |  | 
B21 | 49.4 | 0.000677 | 13700 | 9.65 | 0.000144 | 14900 | 
B22 | 19.3 | 0.000955 | 49500 |  |  |  | 
B23 | 1.36 | 0.000432 | 317000 |  |  |  | 
B24 | 0.733 | 0.000302 | 411000 | 0.486 | 0.000135 | 278000 | 
B25 | 17.1 | 0.000569 | 33300 |  |  |  | 
B26 | 0.248 | 5.78e-05 | 233000 | 0.0902 | 2.52e-05 | 279000 | 
B27 | 4.58 | 0.000437 | 95500 |  |  |  | 
B28 | 0.439 | 8.13e-05 | 185000 | 0.207 | 3.72e-05 | 180000 | 
B29 | 0.454 | 0.000109 | 239000 | 1.33 | 0.000287 | 216000 | 
B30 | 9.21 | 0.000325 | 35200 | 2.34 | 8.76e-05 | 37400 | 
